Source: the supplement of paper PMC10724198
± gives the standard deviation of the averaged measurements.

test system: Saccharomyces cerevisiae; assay: protein stability index of tFT-peptide fusion (C-terminal peptide) (PSI (0-1 scale)); higher = more stable (slower turnover); conditions: genetic background: wild type; temperature: 30 C
Description: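 Multiplexed protein stability (MPS) profiling in S. cerevisiae. Random 12-aa peptides (tFT-X12 library) are fused to the C-terminus of a sfGFP-mCherry tandem fluorescent timer, after mCherry and a GGGS linker. Cells are FACS-sorted into 8 mCherry/sfGFP bins and deep-sequenced. The protein stability index (PSI) is the read-weighted bin average, scaled from 0 (unstable) to 1 (stable). Only peptides with >10 reads are reported; cells were grown at 30 °C in SC-His with glucose.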
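Further: PSI is a weighted mean of sequencing reads over stability bins, variants kept only with over 10 reads, mCherry proximal and sfGFP distal, peptide attached via GGGS linker.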

Sequence | protein stability index
SSHWGRSRLASG | 0.674 ± 0.1
FGGGGGGVGLAV | 0.65 ± 0.033
LRVRLSVLLPLD | 0.578 ± 0.0093
RSGREFLLSSLI | 0.718 ± 0.084
NDKPKTTQKRTP | 0.718 ± 0.0092
TTCKTPPTYSFP | 0.71 ± 0.033
IPRPFRSLPFLP | 0.7307 ± 0.0047
AEKKEERQRTSN | 0.681 ± 0.032
PPPAPPPSPPSN | 0.675 ± 0.044
SPMELEHSSAVP | 0.6605 ± 0.0046
KRKEEKKPLINE | 0.734 ± 0.072
CVGARLYMVRDR | 0.724 ± 0.046
SSLLLPALSPSV | 0.647 ± 0.077
FRPPVPPPPVLP | 0.683 ± 0.012
DSPPRATFSAPR | 0.69 ± 0.036
TRSLPSSSSHSL | 0.727 ± 0.011
VIAGSWVAGVSV | 0.655 ± 0.011
FAVSTVCWCCGL | 0.647 ± 0.041
PPPQHLPPPSLS | 0.676 ± 0.019
ERNDLGNRLSMD | 0.654 ± 0.02
GFTAERWRVKGR | 0.674 ± 0.058
QAVQTLTAETKH | 0.63 ± 0.051
LIVIGGGAVNGV | 0.63 ± 0.069
CCGHGVFSFFSL | 0.749 ± 0.023
NIRSRKYMLRKS | 0.744 ± 0.085

Sequence | protein stability index
AKEIVYAPRNPD | 0.645 ± 0.053
LFPLISPLQSER | 0.737 ± 0.026
SISSVFCTGRCH | 0.721 ± 0.19
PPCPSPPLFLPS | 0.687 ± 0.063
GLVSSDVGFRGY | 0.73 ± 0.019
PFHSPLMPAHSH | 0.764 ± 0.049
SPIIVCLFDLGF | 0.654 ± 0.037
SRACTRRSHTLE | 0.681 ± 0.032
ARFGYYLGLGRC | 0.748 ± 0.065
LAPPYPSSASSH | 0.688 ± 0.022
WVLPFLGAWLEL | 0.606 ± 0.063
TLSPPPLSPSAP | 0.711 ± 0.013
CRAAAGMVVWHG | 0.6835 ± 0.0056
FQGALFTEVVES | 0.716 ± 0.043
MKGELRHRWCPL | 0.71 ± 0.046
DFMGLRCSARKA | 0.693 ± 0.016
LLTLPPPRLLSL | 0.629 ± 0.022
SCFCNFFRFCCI | 0.637 ± 0.029
GVVGDGGRLSGD | 0.667 ± 0.022
DKSHRKNKKKRN | 0.699 ± 0.0074
RWRECVVWGVWG | 0.663 ± 0.0096
PPHHSLSPPLPP | 0.6607 ± 0.0014
PRYVQPQCLAQR | 0.6721 ± 0.0051
RNPYNTNTVSNI | 0.732 ± 0.08
SPPPARLLPPPS | 0.723 ± 0.12

Sequence | protein stability index
EVWGGVCWRAGG | 0.735 ± 0.12
CPYIFLLSLGNT | 0.651 ± 0.017
FLWSSLYYARLD | 0.75 ± 0.032
HWRRGGRRGGDR | 0.703 ± 0.1
TTIVGRIMRVMR | 0.706 ± 0.012
SSFLSFSSGCQS | 0.757 ± 0.045
LTSSLSLSFPPL | 0.749 ± 0.039
LLRSSPPLPPPS | 0.737 ± 0.029
RTTNHRLPQPPR | 0.632 ± 0.063
SPRISSCSPFDS | 0.726 ± 0.036
DRPACVAHKLFS | 0.677 ± 0.0073
PPGLRSYACCRN | 0.7615 ± 0.0046
PPPPPPPNSHPH | 0.678 ± 0.021
SMRFLGIKLKKY | 0.648 ± 0.023
PMPPPRRPTALC | 0.716 ± 0.038
PPPPPSAISPTH | 0.732 ± 0.0036
PPRLASFYIILG | 0.571
AHTPGTHLGRKT | 0.71 ± 0.0082
PLAPSTPPNLSN | 0.643 ± 0.073
PCLSLSFPPLPH | 0.736 ± 0.034
APPPSLHCLRLP | 0.725 ± 0.071
LLHMSRLWYTTF | 0.595 ± 0.022
GGGAGKGPQTRG | 0.676 ± 0.062
TYANKVKVHCGI | 0.651 ± 0.059
LPRPLSPPLPSP | 0.702 ± 0.042

Sequence | protein stability index
VSKVGDMNSGSK | 0.651 ± 0.013
REAGGSQVKRRL | 0.671 ± 0.12
VGGRAAIGRGGW | 0.706 ± 0.012
LESLWEAIRTLF | 0.5136 ± 0.005
PLCPPPPVASFV | 0.64 ± 0.013
PHRLPPLPNPLH | 0.693 ± 0.082
RNSVGGHENWNQ | 0.703 ± 0.11
APPTPPHPRPSS | 0.7269 ± 0.0036
RCNKETKNKDVL | 0.7348 ± 0.0054
GVCSRAVGSGSF | 0.715 ± 0.067
SLFPPAPPPPRS | 0.641 ± 0.098
VGKSNKYEETHK | 0.747 ± 0.06
VGDGLGWGGQGG | 0.678 ± 0.03
TSTRTPTHRGPL | 0.762 ± 0.014
PPPPPRHPSSPP | 0.71068 ± 0.00014
FSKVLCSIVRGR | 0.655 ± 0.015
DMAVYLVSVSRV | 0.609 ± 0.053
RKIQNASLGRGA | 0.7 ± 0.037
PPCCFPRSPSPS | 0.714 ± 0.049
CPFLFSLFPHSF | 0.6646 ± 0.0033
LVGGGEGWVVLG | 0.651 ± 0.09
MTMGSIGNFDQG | 0.611 ± 0.073
PSPLRDLRSTAL | 0.663 ± 0.031
SFAHIVSLPVSM | 0.657 ± 0.037
FWPPPATSAAPC | 0.79 ± 0.011

Sequence | protein stability index
RFAWLPAPGRIV | 0.647 ± 0.015
GSVSWVLMWSWG | 0.623 ± 0.059
VVVGGVGGFFGC | 0.754 ± 0.015
VSGMRRRFGNRL | 0.756 ± 0.11
PPPFSPPAPSPP | 0.669 ± 0.053
RRLATRMGPCDA | 0.682 ± 0.011
PPPPPPARLPSP | 0.711 ± 0.017
QGVPNEPLWARP | 0.72 ± 0.027
PCARLAGSPLPT | 0.688 ± 0.021
RRLLERSIKRSE | 0.696 ± 0.016
WQWDMESKRKKE | 0.7056 ± 0.0026
RRVTTSFWPLGS | 0.671 ± 0.067
PTFPPPPRTPPS | 0.719 ± 0.017
SGATVGVLCFAS | 0.58 ± 0.006
VREILKDGIFDP | 0.717 ± 0.043
KGEGGEGSMGGA | 0.733 ± 0.053
YLVPPLQPHSPA | 0.7305 ± 0.0056
KIEHEGIKTGGT | 0.757 ± 0.16
AYEGVYAVVANV | 0.616 ± 0.014
PLRLPVPLPSPP | 0.6571 ± 0.0062
ASLHAPPLPPLC | 0.689 ± 0.02
WKYRGVGGVGMG | 0.745 ± 0.097
HDLVRECVGPVH | 0.602 ± 0.024
WVGLGRVWVKLG | 0.697 ± 0.044
SWSRAAYKGPWG | 0.702 ± 0.015

Sequence | protein stability index
ALPRAPSRPPAR | 0.67 ± 0.042
FVFAYLPSYEAM | 0.729 ± 0.023
SLVAFAKMANFV | 0.633 ± 0.044
SLWLRLAIPSRY | 0.68862 ± 0.00061
FGASYLGSLLDV | 0.699 ± 0.057
AVNLWSRFFDLP | 0.686 ± 0.052
WFVTVISSRFGS | 0.6444 ± 0.0011
KQRQTKTIRGPR | 0.672 ± 0.059
YCHVPVVGSWIP | 0.735 ± 0.067
VPPHPFFPLPPP | 0.788 ± 0.099
WRSSSFFPAAVG | 0.6715 ± 0.0042
PPPPPLPRSPSP | 0.807 ± 0.12
ATLGRCYSSNGL | 0.672 ± 0.031
RPVRLLPCVCHF | 0.679 ± 0.017
PHQPRDGSFHGT | 0.653 ± 0.011
SPSPPPASPPAP | 0.654 ± 0.14
PPPPPPRRSSPP | 0.681 ± 0.069
GRRFCYQASAGQ | 0.642 ± 0.0093
FMSMSYDEWAYL | 0.721 ± 0.064
LFVGCRDPLCGV | 0.723 ± 0.00029
TRTRARAIQTAT | 0.6462 ± 0.0054
RLPPALRRNAPP | 0.665 ± 0.18
GLTWFRQARAAL | 0.718 ± 0.039
HQYSRHASIRTL | 0.623 ± 0.06
TSTDLKKTNLQN | 0.645 ± 0.021

Sequence | protein stability index
PPPLPLPPPLPP | 0.533 ± 0.046
GSWRVLVLLGEL | 0.636 ± 0.029
PSSAPPGSPGHL | 0.701 ± 0.019
YRALRRAFENKI | 0.633 ± 0.028
GTLPLGVRGGLK | 0.657 ± 0.081
KLRSTLVSAQGV | 0.652 ± 0.015
LRERKVYLVKIK | 0.575 ± 0.006
LLCYSGVIFGSV | 0.59 ± 0.087
QYKKKEKKQNRT | 0.624 ± 0.1
FSHPQPLLPFPV | 0.662 ± 0.0094
SFAQANRYLTSL | 0.699 ± 0.012
RPAVSCYTGGDH | 0.7083 ± 0.0056
VGVSGCVLWYRV | 0.692 ± 0.031
SSRWSMEHMAAW | 0.715 ± 0.059
KVHVILTGKYEI | 0.7012 ± 0.0025
GLRQVPGDLAEG | 0.699 ± 0.039
PAPAVPPQTTPM | 0.6693 ± 0.001
FGLWGFGRPRGW | 0.721 ± 0.031
RATTNKRIRVEL | 0.704 ± 0.011
SCFRTLPGRWPF | 0.793 ± 0.022
PPAVDSSPRSRD | 0.7148 ± 0.0019
EKKKQKDKKKKN | 0.705 ± 0.0078
GKFVEVVRFWSV | 0.721 ± 0.074
PPCRREEQTDNH | 0.682 ± 0.059
RGRKEQSKKKKE | 0.647 ± 0.13

Sequence | protein stability index
RPLNLPPPPAPF | 0.659 ± 0.072
KRKRQKNIRNER | 0.704 ± 0.12
PVPLEAPSPPPP | 0.671 ± 0.022
KKYETNENNQKK | 0.686 ± 0.027
RVPLHSSTVFWL | 0.7 ± 0.04
HPSPFTPPTNPY | 0.733 ± 0.06
PPSPHPPPSAPP | 0.6411 ± 0.0028
CTCLHSSGVRHT | 0.692 ± 0.047
GFRDGVASLFVR | 0.757 ± 0.026
KKRQKKKKLIPQ | 0.697 ± 0.024
NRLVRLSQGGRE | 0.668 ± 0.019
PAPPPPPPALLP | 0.677 ± 0.067
LRLRGCSATVPG | 0.752 ± 0.063
PWKDPSLLLHRS | 0.743 ± 0.061
HSLLPSYPFLSP | 0.715 ± 0.076
PQESRAWTLSSA | 0.713 ± 0.05
WQGSASCSVVLV | 0.55 ± 0.043
GGGFLGGTVAAV | 0.7 ± 0.032
ASSRQCSVEART | 0.695 ± 0.0082
CHSLEDRPDDPC | 0.758 ± 0.1
GFVAGGVCSRPL | 0.715 ± 0.076
